Measurements from PMC11294563.
One block for each substance: values may come before it.

What was measured:
[1] = biological target: mNG::PAR-2(L109R) (endogenously tagged PAR-2 with L109R) (C. elegans)
[2] = biological target: PAR-2 RING domain (residues 40-120) L109R (C. elegans); experiment: SEC-MALS; input sample 0.75 mg/ml, wild type compared with L109R; Superdex 75 Increase 10/300 GL, 20 mM Tris-HCl, 150 mM NaCl, 0.5 mM TCEP pH 7.5
[3] = biological target: PAR-2 RING domain (PAR-2 residues 40-120, core RING domain and flanking dimerization helices) (C. elegans); experiment: SEC-MALS; input samples from 10 to 0.5 mg/ml, 100 µl on Superdex 75 Increase 10/300 GL, 20 mM Tris-HCl, 150 mM NaCl, 0.5 mM TCEP pH 7.5, 1.0 ml/min; weight-averaged molecular weight fitted to a monomer-dimer model
[4] = biological target: PAR-2 RING domain (PAR-2 residues 40-120, core RING domain and flanking dimerization helices) (C. elegans); experiment: SEC-MALS; input sample 0.75 mg/ml, wild type compared with L109R; Superdex 75 Increase 10/300 GL, 20 mM Tris-HCl, 150 mM NaCl, 0.5 mM TCEP pH 7.5
[5] = biological target: PAR-2 RING domain (PAR-2 residues 40-120, core RING domain and flanking dimerization helices) (C. elegans); experiment: AUC; sedimentation equilibrium, interference data, 20,000 and 24,000 rpm, three PAR-2 RING concentrations, 20 mM Tris-HCl, 150 mM NaCl, 0.5 mM TCEP; global fit to a monomer-dimer model (SEDPHAT); dimer to monomers

fold reduction in dimerization affinity against PAR-2(WT), from the simultaneous fit of the model to membrane and cytoplasmic concentrations in embryos (common KD^mem) [1]: 6 fold
Substance: mNG::PAR-2(L109R) (endogenously tagged PAR-2 with L109R) (natural protein)

dimer fraction at 0.75 mg/ml [2]: 5%
fold reduction in dimer affinity against wild type [2]: 10 fold
Substance: PAR-2 RING domain (residues 40-120) L109R (domain or fragment)

stoichiometry N [3]: 2
dimer fraction at 0.75 mg/ml [4]: 35%
Kd [5]: 358 nM
Substance: PAR-2 RING domain (PAR-2 residues 40-120, core RING domain and flanking dimerization helices) (domain or fragment)
